The assay addresses Helicobacter pylori dimeric oxidoreductase DsbK (HP0231), native (Helicobacter pylori). Briefly: SEC; size exclusion; conditions not shown (Supplementary Table S3).

Regarding “Helicobacter pylori dimeric oxidoreductase DsbK (HP0231), native (enzyme)”, the stoichiometry N stood at 2.

Broadly, the stoichiometry N is the number of molecules, sites or subunits per partner or assembly.

These data come from publication PMC4960241.
